First the molecules themselves.
B1: NYA-0001 (scFv)
scFv: GEVQLVESGGGVVQPGRSLTPSCSASGFSIRSYDIHWVRQAPGKGLEWVATISYDGSQKYFADSVKGRFTIFRDESENMVYLQMSGLRVEDTAVYHCARGSSGHYEAFDIWGQGTMVTVSSGGGGSGGGGSGGGGSQSVLTQPPSVSAAPGQKVTISCSGSSSNIGNNYVSWYQQLPGTAPKLLIYDNNKRPSGIPDRFSGSKSGTSATLGITGLQTGDEADYYCGTWDSSLSAPWVFGGGTKVTVLGAAAGAGGDYKDDDDKGAAAHHHHHH
notes: also called NYA-0001 tag adduct; NY-R119 expressed in a cultured mammalian cell
B2: NYA-2027 (scFv)
scFv: B1 scFv with T227S
B3: NYA-2023 (scFv)
scFv: B1 scFv with N168W
B4: NYA-1143 (scFv)
scFv: B1 scFv with Q40L, N168W
B5: NYA-1163 (scFv)
scFv: B1 scFv with Q40L
B6: NYA-1154 (scFv)
scFv: B1 scFv with I35M, G103N, Q175R, T227A
B7: NYC-0003 (scFv, not shown: small tags and cut ends)
scFv: EVQLLESGGGLVQPGGSLRLSCAASGFTFSTYQMSWVRQAPGKGLEWVSGIVSSGGSTAYADSVKGRFTISRDNSKNTLYLQMNSLRAEDTAVYYCAGELLPYYGMDVWGQGTTVTVSSGGGGSGGGGSGGGGSQSELTQPRSVSGSPGQSVTISCTGTSRDVGGYNYVSWYQQHPGKAPKLIIHDVIERSSGVPDRFSGSKSGNTASLTISGLQAEDEADYYCWSFAGSYYVFGTGTDVTVL
notes: also called 3M4E5 scFv; NYC-0003 tag adduct
B8: NYC-0004 (scFv, not shown: small tags and cut ends)
scFv: B7 scFv with S160E, S230G
notes: also called T1 scFv; NYC-0004 tag adduct

Positions count from the first letter of the chain named.

In one test the target is T1, HLA-A2 / homologous peptide DOLPP1 complex on T2 cells (human).
T1 construct: whole, on cells; also called T2 cells supplemented with homologous peptide DOLPP1
Put plainly: flow cytometry, peptide-pulsed T2 cells. Background: Flow cytometry measures light scatter and fluorescence of single cells or particles in a stream.
Turning to B1, the binding result was “no binding (tested: 100 nM)”.
Same read-out and setting: the entry for B2 is “no binding (tested: 100 nM)”; for B3 it is “no binding (tested: 100 nM)”; for B4 it is “no binding (tested: 100 nM)”.
In the case of B5, the binding result is reported as “no binding (tested: 100 nM)”.

For the next test, the target named is T2, HLA-A2 / homologous peptide IL20RB complex on T2 cells (human).
T2 construct: whole, on cells; also called T2 cells supplemented with homologous peptide IL20RB
Put plainly: flow cytometry, peptide-pulsed T2 cells.
B1: the binding result is “no binding (tested: 100 nM)”.
Still for that read-out and setting: the result for B2 reads “no binding (tested: 100 nM)”.
The same measure, in the same setting: the result for B3 reads “no binding (tested: 100 nM)”; that for B4, “no binding (tested: 100 nM)”; that for B5, “no binding (tested: 100 nM)”.

Another test deals with T3, HLA-A2 / homologous peptide PRKD2 complex on T2 cells (human).
T3 construct: whole, on cells; also called T2 cells supplemented with homologous peptide PRKD2
As to the kind of experiment: flow cytometry, peptide-pulsed T2 cells.
Consider B1, for which the binding result is “no binding (tested: 100 nM)”.
For B2, the binding result was “no binding (tested: 100 nM)”.
As to B3, the binding result is reported as “no binding (tested: 100 nM)”.
B4: the binding result is listed as “no binding (tested: 100 nM)”.
As for B5, the binding result is “no binding (tested: 100 nM)”.

In the next test the target is T4, HLA-A2 / homologous peptide CD163 complex on T2 cells (human).
T4 construct: whole, on cells; also called T2 cells supplemented with homologous peptide CD163
As to the kind of experiment: flow cytometry, peptide-pulsed T2 cells.
Turning to B1, the binding result was “no binding (tested: 100 nM)”.
Consider B2, for which the binding result is reported as “no binding (tested: 100 nM)”.
On the same count and under the same terms, the result for B3 reads “no binding (tested: 100 nM)”.
For B4, the binding result was “no binding (tested: 100 nM)”.
Take B5: the binding result is recorded as “no binding (tested: 100 nM)”.

The next test has as its target T5, HLA-A2 / homologous peptide P2RY8 complex on T2 cells (human).
T5 construct: whole, on cells; also called T2 cells supplemented with homologous peptide P2RY8
As to the kind of experiment: flow cytometry, peptide-pulsed T2 cells.
As for B1, the binding result is “no binding (tested: 100 nM)”.
As for B2, the binding result is recorded as “no binding (tested: 100 nM)”.
Take B3: the binding result was “no binding (tested: 100 nM)”.
Take B4: the binding result was “no binding (tested: 100 nM)”.
On to B5, for which the binding result was “no binding (tested: 100 nM)”.

A further test deals with T6, gp100 (human).
T6 construct: cell surface;cell surface complex; also called HLA-A2 / gp100 peptide complex on T2 cells
As to the kind of experiment: flow cytometry on peptide-pulsed T2 cells, scFv 100 nM.
Method: (§1) The resultant was washed two times in the AIM-V medium containing 20% FBS, the concentration thereof was adjusted to an adequate level with PBS containing 5% FBS, the LIVE/DEAD Fixable Dead Cell Stain Kit (Thermo Fisher Scientific) was added thereto, and the resultant was allowed to stand at 4° C. for 30 minutes. The cells were washed 2 times in PBS containing 5% FBS, the washed cells were divided into two groups, the cells in PBS containing 5% FBS were seeded on a 96-well U-bottom microplate at 10⁵ cells/well, and the plate was subjected to centrifugation, followed by removal of the supernatant. Anti-HLA/NY-ESO scFv diluted to 100 nM with PBS containing 5% FBS was added at 25 μl/well to one of the divided cells, and the resultant was allowed to stand at 4° C. for 30 minutes. The cells were washed 2 times in PBS containing 5% FBS, Penta-His Alexa Fluor488 (QIAGEN) diluted in PBS containing 5% FBS was added at 25 μl/well, and the resultant was allowed to stand at 4° C. for 30 minutes. The cells were washed 2 times in PBS containing 5% FBS, Anti-mouse-IgG Alexa Fluor488 (Thermo Fisher Scientific) diluted in PBS containing 5% FBS was added at 25 μl/well, and the resultant was allowed to stand at 4° C. for 30 minutes. The cells were washed 2 times in PBS containing 5% FBS, immobilized with Mildform 10 N (FUJIFILM Wako Pure Chemical Corporation) overnight, and resuspended in PBS containing 5% FBS. […] The cells were washed 2 times in PBS containing 5% FBS, immobilized with Mildform 10 N (FUJIFILM Wako Pure Chemical Corporation) overnight, and resuspended in PBS containing 5% FBS. The cell suspensions were subjected to detection using a flow cytometer (CantoII, Becton Dickinson). […] The standardized gMFI indicating the binding affinity of each scFv standardized with the amount of the HLA/peptide complex on the T2 cells was determined in accordance with the following equation.
Turning to B1, the “standardized gMFI” value amounted to 0.43.
Regarding B2, the “standardized gMFI” value came out at 0.41.
As to B6, the “standardized gMFI” value came out at 0.46.
Take B3: the “standardized gMFI” value turned out to be 0.4.
As to B4, the “standardized gMFI” value was found to be 0.41.
For the molecule B5, the “standardized gMFI” value was found to be 0.44.
As to B7, the “standardized gMFI” value was 0.39.
Regarding B8, the “standardized gMFI” value was determined as 0.37.

A further test has as its target T7, HLA-A2/NY-ESO peptide complex presented on cells (human).
T7 construct: whole, on cells; also called HLA/NY-ESO; T2 cells supplemented with the NY-ESO peptide
The test is described as above.
Method: as §1
As to B1, the “standardized gMFI” value turned out to be 5.75.
As for B2, the “standardized gMFI” value worked out at 5.75.
Take B6: the “standardized gMFI” value turned out to be 9.98.
On to B3, for which the “standardized gMFI” value was found to be 8.85.
Same read-out and setting: the figure for B4 is 12.9; for B5 it is 3.67; for B7 it is 3.74.
B8: the “standardized gMFI” value came out at 6.02.

For a further test, the target named is T6, gp100. Described as above. This is another data set of the same source.
Method: (§2) The cells were washed 2 times in PBS containing 5% FBS, immobilized with Mildform 10 N (FUJIFILM Wako Pure Chemical Corporation) overnight, and resuspended in PBS containing 5% FBS. The cell suspensions were subjected to detection using a flow cytometer (CantoII, Becton Dickinson). […] The standardized gMFI indicating the binding affinity of each scFv standardized with the amount of the HLA/peptide complex on the T2 cells was determined in accordance with the following equation.
(§3) The 9-mer peptide shown in FIG. 2A was selected as a homologous peptide for evaluation of binding specificity of anti-HLA/NY-ESO scFv. […] The standardized gMFI indicating the binding affinity of each scFv standardized with the amount of the HLA/peptide complex on the T2 cells was determined in accordance with the following equation.
Consider B1, for which the “standardized gMFI” value stood at 0.31.
Consider B2, for which the “standardized gMFI” value came out at 0.31.
Take B6: the “standardized gMFI” value is 0.31.
Regarding B3, the “standardized gMFI” value is 0.3.
As to B4, the “standardized gMFI” value was found to be 0.3.
As for B5, the “standardized gMFI” value amounted to 0.3.
As for B7, the “standardized gMFI” value is 0.32.
Take B8: the “standardized gMFI” value worked out at 0.32.

A further test has as its target T7, HLA-A2/NY-ESO peptide complex presented …. The test is described as above. The source holds these as a separate data set.
Method: as §2, §3
Regarding B1, the “standardized gMFI” value came out at 5.12.
As to B2, the “standardized gMFI” value is 7.25.
For B6, the “standardized gMFI” value stood at 13.8.
Regarding B3, the “standardized gMFI” value is 10.1.
Consider B4, for which the “standardized gMFI” value was 13.4.
The same measure, in the same setting: the result for B5 reads 4.21; that for B7, 5.22.
With B8, the “standardized gMFI” value stood at 9.19.

Another test concerns the target T1, HLA-A2 / homologous peptide DOLPP1 …. The test is described as above.
Method: as §2, §3
B1: the “standardized gMFI” value worked out at 0.37.
In the case of B2, the “standardized gMFI” value amounted to 0.39.
For the molecule B6, the binding result is given as “no binding (tested: 100 nM)” and the “standardized gMFI” value stood at 0.46.
In the case of B3, the “standardized gMFI” value turned out to be 0.42.
In the case of B4, the “standardized gMFI” value is 0.37.
Regarding B5, the “standardized gMFI” value was 0.36.
In the case of B7, the “standardized gMFI” value turned out to be 0.38.
On the same count and under the same terms, the result for B8 reads 0.39.

The target of the next test is T2, HLA-A2 / homologous peptide IL20RB …. Described as above.
Method: as §2, §3
In the case of B1, the “standardized gMFI” value turned out to be 0.42.
In the case of B2, the “standardized gMFI” value amounted to 0.42.
For the molecule B6, the binding result was “no binding (tested: 100 nM)” and the “standardized gMFI” value stood at 0.51.
For the molecule B3, the “standardized gMFI” value was determined as 0.42.
B4: the “standardized gMFI” value was determined as 0.42.
B5: the “standardized gMFI” value was found to be 0.41.
As for B7, the “standardized gMFI” value is 0.43.
Regarding B8, the “standardized gMFI” value came out at 0.43.

The target of the next test is T3, HLA-A2 / homologous peptide PRKD2 …. The description is as above.
Method: as §2, §3
B1: the “standardized gMFI” value turned out to be 0.33.
As for B2, the “standardized gMFI” value worked out at 0.32.
As for B6, the “standardized gMFI” value stood at 2.72.
Regarding B3, the “standardized gMFI” value was 0.42.
For the molecule B4, the “standardized gMFI” value is 0.32.
In the case of B5, the “standardized gMFI” value was found to be 0.31.
In the case of B7, the “standardized gMFI” value came to 1.53.
For B8, the “standardized gMFI” value was 3.41.

A further test addresses T4, HLA-A2 / homologous peptide CD163 …. Described as above.
Method: as §2, §3
For the molecule B1, the “standardized gMFI” value is 0.48.
As to B2, the “standardized gMFI” value was determined as 0.51.
Regarding B6, the binding result was “no binding (tested: 100 nM)” and the “standardized gMFI” value came to 0.54.
As for B3, the “standardized gMFI” value was found to be 0.48.
In the case of B4, the “standardized gMFI” value was 0.46.
On the same count and under the same terms, the result for B5 reads 0.46; that for B7, 1.08.
In the case of B8, the “standardized gMFI” value was 0.49.

The next test concerns the target T5, HLA-A2 / homologous peptide P2RY8 …. Described as above.
Method: as §2, §3
Regarding B1, the “standardized gMFI” value was found to be 0.73.
On the same count and under the same terms, the figure for B2 is 0.7.
In the case of B6, the binding result is listed as “no binding (tested: 100 nM)” and the “standardized gMFI” value was found to be 0.65.
Take B3: the “standardized gMFI” value is 0.7.
With B4, the “standardized gMFI” value was 0.69.
Regarding B5, the “standardized gMFI” value came to 0.69.
As to B7, the “standardized gMFI” value came out at 2.01.
As to B8, the “standardized gMFI” value was found to be 1.98.

In the next test the target is T8, HLA-A*0201/β2-microglobulin/NY-ESO peptide complex (human, biotinylated with E. coli biotin ligase at the added recognition sequence (biotinylated form used in the ELISA)).
T8 construct: also called HLA/NY-ESO; HLA-A2/NY-ESO
Put plainly: SPR (Biacore T200), scFv captured by anti-His antibody, HLA/NY-ESO as analyte, single cycle kinetics. (Surface plasmon resonance follows binding to a sensor surface in real time, without labels.)
Method: With the use of Biacore T200, anti-HLA/NY-ESO scFv was captured as a ligand by the immobilized anti-His antibody, and the antigen was assayed as an analyte. As the antigen, HLA/NY-ESO prepared in 1)-1 was used. The anti-His antibody (His Capture kit, GE Healthcare) was immobilized on Sensor Chip CM5 (GE Healthcare) in accordance with the instructions of the kit. The anti-HLA/NY-ESO scFv constructs diluted to 0.5 μg/ml in HBS-EP+ (GE Healthcare) to be evaluated were brought into contact therewith at 10 μl/min for 60 seconds for immobilization. Thereafter, the samples were added to the HLA/NY-ESO analytes diluted to various levels with HBS-EP+ at a flow rate of 30 μl/min for 120 seconds and dissociation was assayed for 600 seconds.
Molecule B1 displayed a Kd of 33.8 nM.
Same read-out and setting: the result for B2 reads 11.2 nM; that for B3, 2.4 nM; that for B4, 1 nM.
Regarding B5, binding was characterised by a dissociation constant (Kd) of 13 nM.
B7 came in with a Kd of 8.1 nM.
Molecule B8 had a Kd of 2.8 nM.

By Kd is commonly meant the constant that tells how readily two partners part at equilibrium. Higher therefore signals lower affinity.

Source of the values: patent US20230348616A1 (MIE UNIVERSITY, published 2023).
